The results in this text go back to paper PMC6997208, “Conversion of walnut tyrosinase into a catechol oxidase by site directed mutagenesis” (Scientific Reports, 2020).

Residue numbers refer to the chain shown, from its start. In names and notes the source's numbering stands.

To fix the notation:
B1: jrPPO1-wt (Juglans regia; V207I) (protein)
chain: DPVSAPELTLCSEADLPAGALPVNCCPPTSKKIKDFVLPSQNTPLRVRPAAHLVDNDYIAKYNKGIELMKSLPADDPRSFTQQANVHCAYCDGAYTQVGFPDLSLQIHECWLFFPFHRYYVYFFEKILGKLIGDPTFALPFWNWDSPPGMQLPSLYAVSNSAIYDPLRNANHQPPTIIDLDYGETSESTTTTDQVPSNLKIMYRQMVSGAKNPTLFFGSPYRAGDEPDPGAGTIESTPHNNIHLWTGDDTQPNIENMGNFYSAGRDPIFFAHHSNVDRMWTIWKTLGGKRKDITDPDWLNSSFFFYDENADPVRVKVKDCVDNTKLRYVYQDVEIPWLKTKPTPRKSRVKKVAKAFPAGHGGVAQAAETSSVKFPIVLDKVISTVVARPKKSRSKKEKDDEEEVLVIEGIEVERDIPVKFDVFINDEDDAPTGPGINTEFAGSFVSVPQQKQTKKKKTYLRIGISDLLEDLGAEDDDSVVVTLVPRFGKGKAIIGGIKIVLIG
notes: latent pro-enzyme (active domain + C-terminal domain) without transit peptide; E. coli BL21(DE3), pGEX-6P-1, N-terminal GST tag cut with HRV-3C protease; cloned from walnut leaf cDNA, Val107Ile versus FJ769240.1
B2: jrPPO1-wt (Juglans regia; L344R/N340K/V307I) (protein)
chain: B1 chain with I107V, V207I, N240K, L244R
notes: as for B1
B3: jrPPO1-wt (Juglans regia; L344R/N340T/V307I) (protein)
chain: B1 chain with I107V, V207I, N240T, L244R
notes: as for B1
B4: jrPPO1-wt (Juglans regia; L344R/V307I) (protein)
chain: B1 chain with I107V, V207I, L244R
notes: as for B1
B5: jrPPO1-wt (Juglans regia; N340K/V307I) (protein)
chain: B1 chain with I107V, V207I, N240K
notes: as for B1
B6: jrPPO1-wt (Juglans regia; F360G/V307I) (protein)
chain: B1 chain with I107V, V207I, F260G
notes: as for B1

Substrate in one data set: N[C@@H](Cc1ccc(O)c(O)c1)C(=O)O
Kind of data set: spectrophotometric quinone formation. The class given is biochemical, Juglans regia. The following applies: 50 mM sodium phosphate pH 6.0, 2 mM SDS as activator, 25 °C, diphenolase. The text has this:
(§1) spectrophotometric quinone formation on jrPPO1-wt
In the case of B1, the Km is 6.2 ± 1.0 mM, the kcat is 111 ± 8.8 s⁻¹ and the kcat/Km was 18100 ± 3400 M⁻¹ s⁻¹.

Consider B2, for which the Km was 16.5 ± 4.8 mM, the kcat was determined as 0.104 ± 0.019 s⁻¹ and the specificity constant (kcat/Km) is 6 ± 2.1 M⁻¹ s⁻¹.

On to B3, for which the Km is 13.1 ± 3.3 mM, the kcat worked out at 0.18 ± 0.027 s⁻¹ and the kcat/Km turned out to be 12.9 ± 4 M⁻¹ s⁻¹.

Substrate in another data set: NCCc1ccc(O)cc1
Kind of data set: spectrophotometric quinone formation. The following applies: 50 mM sodium phosphate pH 6.0, 2 mM SDS as activator, 25 °C, monophenolase. In kind it is biochemical, Juglans regia.
Excerpt: as §1
Consider B1, for which the Km was found to be 0.451 ± 0.084 mM, the kcat came to 24.7 ± 1.5 s⁻¹ and the kcat/Km stood at 55000 ± 11000 M⁻¹ s⁻¹.

As for B4, the Km is reported as 2.68 ± 0.53 mM, the kcat was found to be 1.62 ± 0.09 s⁻¹ and the specificity constant (kcat/Km) stood at 600 ± 120 M⁻¹ s⁻¹.

Regarding B5, the Km came out at 8.2 ± 1.4 mM, the kcat came to 0.0542 ± 0.0034 s⁻¹ and the kcat/Km is 6.6 ± 1.2 M⁻¹ s⁻¹.

Take B6: the Km is reported as 3.05 ± 0.72 mM, the kcat is 0.323 ± 0.025 s⁻¹ and the kcat/Km is 103 ± 26 M⁻¹ s⁻¹.

Substrate in a further data set: N[C@@H](Cc1ccc(O)cc1)C(=O)O
Description: spectrophotometric quinone formation. The class given is biochemical, Juglans regia. The following applies: 50 mM sodium phosphate pH 6.0, 2 mM SDS as activator, 25 °C, monophenolase.
Excerpt: as §1
For B1, the Michaelis-Menten constant (Km) turned out to be 1.42 ± 0.37 mM, the kcat was determined as 6 ± 1.1 s⁻¹ and the catalytic efficiency (kcat/Km) was found to be 4300 ± 1400 M⁻¹ s⁻¹.

Substrate in a further data set: NCCc1ccc(O)c(O)c1
Kind of data set: spectrophotometric quinone formation. In kind it is biochemical, Juglans regia. The settings on record: 50 mM sodium phosphate pH 6.0, 2 mM SDS as activator, 25 °C, diphenolase.
Excerpt: as §1
Take B1: the Km turned out to be 0.75 ± 0.13 mM, the catalytic constant (kcat) stood at 92.5 ± 7.8 s⁻¹ and the kcat/Km came to 123000 ± 24000 M⁻¹ s⁻¹.

For the protein B2, the Km is 6.8 ± 1.3 mM, the kcat was 0.029 ± 0.002 s⁻¹ and the catalytic efficiency (kcat/Km) turned out to be 4.28 ± 0.85 M⁻¹ s⁻¹.

On to B4, for which the Km came out at 2.36 ± 0.41 mM, the kcat was found to be 24.9 ± 1.6 s⁻¹ and the kcat/Km came out at 10600 ± 2000 M⁻¹ s⁻¹.

As for B5, the Km amounted to 19.8 ± 4.7 mM, the kcat worked out at 2.51 ± 0.4 s⁻¹ and the kcat/Km was found to be 132 ± 97 M⁻¹ s⁻¹.

Turning to B3, the Km is reported as 6.6 ± 1.5 mM, the kcat turned out to be 0.789 ± 0.079 s⁻¹ and the kcat/Km is 122 ± 26 M⁻¹ s⁻¹.

With B6, the Km was 1.2 ± 0.4 mM, the kcat worked out at 7.36 ± 0.98 s⁻¹ and the specificity constant (kcat/Km) turned out to be 5900 ± 2200 M⁻¹ s⁻¹.

A word on the Km: it is the substrate concentration at which the rate is half of its maximum. What is called kcat is the number of substrate molecules converted per active site and unit of time at saturation. A word on the kcat/Km: it is the second-order rate constant that governs catalysis at low substrate concentration.
